The values that follow come from the supplement of paper PMC12042874.

± gives the uncertainty stated by the source.

This data set can be described thus: amyloid nucleation score (Sup35N fusion, yeast selection) (log enrichment); library NNK1; higher = more nucleation; inactive = no reads after selection. Put shortly:
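Sup35N was fused to peptides of 20 random codons and expressed in psi-negative yeast, which were induced with 100 μM copper sulfate for 24 hours and then grown on medium lacking adenine and uracil for 7 days at 30°C. Plasmid inserts from input and output were sequenced on Illumina. The nucleation score is the DiMSum log enrichment of output over input reads, centred on the mode score of non-aggregating sequences. Sequences with under 100 input reads were left out, and random libraries had three technical output replicates.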
IVRSAVRLELSGLPRCQGIS returned an amyloid nucleation score of -0.065 ± 0.95. As for IVSTMCPRTDGVPCDNF, the figure is -0.035 ± 0.36; as for IVTKGGLNNVCAVYLCYVGS, 6.46 ± 0.065. The result for IVVFSIYYVCSDGGPRVTRR reads 1.43 ± 0.3. The result for IVVYVCIVGNNAPSLDAKSV reads 0.923 ± 0.23; that for IWAHVPTSRYEILVVFSG, 0.253 ± 0.45. Substance IWEFSWLYMLKVMRSGFSYN had an amyloid nucleation score of -0.282 ± 0.44. The result for IWKSSRGPLIGLVVLDIARR reads 1.01 ± 0.79. Turning to IWMTGVLLNP, the amyloid nucleation score is -0.223 ± 0.29. As for IWNSVARFRYSSMGFVVSAV, the figure is -0.702 ± 1.7. The result for IWPYLGSASVL reads 1.73 ± 0.35. As for IWYYSSAQLDCFPYNSTMQE, the figure is 0.8 ± 0.93. In turn, IYACRGQRVMRTRIKCVVIW had an amyloid nucleation score of 0.525 ± 0.72. The result for IYASSLTDGFTVVWCLNQY reads 5.05 ± 0.07; that for IYDIEEDLCSVSVSGKESWV, -0.307 ± 0.47; that for IYFKIVILLRSSFFL, “inactive”.

The substance IYKLLGRVKSMMFLWYTVHS had an amyloid nucleation score of -0.527 ± 0.52. As for IYRFQWPWDMLMYCWTLMSV, the figure is -0.776 ± 0.93; as for IYRLDTI, -0.864 ± 0.75; as for IYVFSALRCTGTEVWYRLVT, -1.2 ± 1.4. The result for IYVWKTQ reads -0.242 ± 0.5; that for IYYGQGICLVFAFNLLCNVL, 6.261 ± 0.048.

KAFATMLNRLEVGTLGRG returned an amyloid nucleation score of -1.36 ± 1.9. For the substance KAFRMLGGFNSYRNFNIILK, the amyloid nucleation score is 3.96 ± 0.079. KAMCYKMSFCNYDSRVYTED yielded an amyloid nucleation score of 4.53 ± 0.06.

KANCCCVSHWCCGYMQ: the amyloid nucleation score was 4.63 ± 0.052.

For KCFSGYWVLARLRVKFLRVG, the amyloid nucleation score is -0.275 ± 0.53. KCTLYLQFNIEHGCAIFEDK displayed an amyloid nucleation score of 2.06 ± 0.64. As for KCYGVETTYALA, the figure is 0.875 ± 0.97; as for KCYTMHWPGS, -1.07 ± 1.7; as for KDEARRGLTLCPTGKDILDY, -0.026 ± 0.47. The result for KDIYKRFFWYYSKKVCGYGA reads -0.172 ± 0.25; that for KDVFPILGFCSAYLPYAWSA, -0.474 ± 0.29; that for KDVLVRFMYLG, -0.21 ± 0.68. The result for KEDIVLACIGSVKHVRAQWR reads 5.97 ± 0.081; that for KETLGIQ, 1.19 ± 0.52; that for KEYNNPRLKLTMRRFAAKS, 0.539 ± 0.69.

Consider KFDLYRTWCSSLRFGRYWRV, for which the amyloid nucleation score came to 1.23 ± 0.59.

Regarding KFFFKSSNDVIKGVHNRTIR, the amyloid nucleation score is -0.404 ± 0.49. In turn, KFIIAGNLNQKSTSWV yielded an amyloid nucleation score of 2.23 ± 0.086. In turn, KFIIVLILDCITIHHSVVVS displayed an amyloid nucleation score of -0.819 ± 0.67.

On to KFILRYMAWTRVDAVVSKPY, for which the amyloid nucleation score was -0.496 ± 0.38. As for KFLLNRVLTDMDLYT, the figure is 0.135 ± 0.37. KFVWVIAVDVDSRCKFCCGS gave an amyloid nucleation score of 0.354 ± 0.82. As for KGAVFVPETAPLI, the figure is 0.93 ± 1; as for KGGSFVGLSTVQYLLASYAL, -0.153 ± 1.3. As for KGKTNGVV, the amyloid nucleation score is -0.44 ± 0.48. KGNRGQ: the amyloid nucleation score result was “inactive”. KGQSRHVSECVGWVSNVASL had an amyloid nucleation score of 0.461 ± 0.73.

KGTGRLIRLASAWAGMGMHL gave an amyloid nucleation score of -0.332 ± 1.1. The result for KHAYFSLIRVSNWKWNSVRV reads -0.027 ± 0.56; that for KHSPSDYPERLHHNFYIERI, “inactive”; that for KHYFCKMSV, -0.029 ± 0.37. Substance KIPYVFFGKRTGVSLFRMFD yielded an amyloid nucleation score of 0.202 ± 0.56. Consider KKFRVGVDLSRCTLGLENYK, for which the amyloid nucleation score is 4.3 ± 0.059. The result for KKYVMSNVTCVE reads 0.934 ± 0.47; that for KLFSWADHGGEGFEWMQLTT, -0.026 ± 0.3; that for KLGCYTL, 0.367 ± 0.81. The result for KLKGG reads -0.27 ± 0.3; that for KLLNRTMRTMVSVSRVM, 0.738 ± 0.72; that for KLMSEFTKFVFSLLSSNKSH, -0.457 ± 0.31.

With KLSFK, the amyloid nucleation score was -0.227 ± 1.9. Turning to KLVDAGFVD, the amyloid nucleation score was determined as 0.759 ± 0.35. The result for KLWPSMSFLNCLWCIRERQL reads 4.48 ± 0.081; that for KLYLVVRMTGQPPSGMACVL, 0.142 ± 1.2; that for KMEPGPRAKALGTNRRFLLK, “inactive”. The result for KMGWLRH reads -0.566 ± 0.5; that for KMRCDGLEQRLRSQSDLLAP, 0.374 ± 0.45; that for KMVLF, 0.927 ± 0.49.

Regarding KNGRWAWFTSRAHCFGYNFT, the amyloid nucleation score is -1.14 ± 0.82. Turning to KNPRGENIFLPCLRMGKHLL, the amyloid nucleation score was -0.776 ± 1.9.

On to KNSLTTKVLLCTLAATL, for which the amyloid nucleation score turned out to be 0.603 ± 0.73. The result for KNTCKQMV reads 0.242 ± 0.57. In turn, KNVSLRYILAYCRHYKLTHG showed an amyloid nucleation score of 0.19 ± 1.2. As for KPEFVNWIC, the figure is 0.083 ± 0.32; as for KPKVVNMVEGLRGFCGLLDL, -0.602 ± 0.94.

Substance KPYIFYFINVYCEA yielded an amyloid nucleation score of 5.917 ± 0.056.

As for KQLDINRLTSDMS, the amyloid nucleation score result is “inactive”. As to KQNSKLFLIFIGNALGQVTV, the amyloid nucleation score stood at 5.09 ± 0.064. KRCFVLWLHRLWVGVNVFAD had an amyloid nucleation score of 0.237 ± 0.25. Turning to KRCSFWQTRTVELSFGHPVL, the amyloid nucleation score was -1.23 ± 2.7.

In the case of KRCSYRS, the amyloid nucleation score is 0.07 ± 0.6. The result for KRLHRGCWEVGSRGSLKLVN reads -1.14 ± 1.6; that for KRLWLKLSTVE, 0.32 ± 0.32. As for KRMDKPWTPGYTAMHWVDNM, the figure is 0.612 ± 0.52; as for KRNRVAIILWICNNYYEWNN, -0.747 ± 0.39; as for KRPSSFVEFFMLWRSKAR, 0.947 ± 0.43. KRSTVRHYYRARCFITVAMV returned an amyloid nucleation score of -0.365 ± 0.45. Take KRVANDWEYGFGYNPTVVGR: the amyloid nucleation score worked out at 0.295 ± 0.46. The result for KSAANTINIRPENETVPRFQ reads 0.556 ± 0.59; that for KSESDL, “inactive”. In turn, KSFSIYTVIVV gave an amyloid nucleation score of 1.2 ± 0.26. On to KSMHEVWWLLQSEGERDL, for which the amyloid nucleation score is 0.712 ± 0.49. As for KSPRVSVGTASVSWRKKFTW, the amyloid nucleation score is 0.2 ± 0.74.

KSQGEVFRVAREGNFIIEES came in with an amyloid nucleation score of -1.07 ± 1.2. KSQTRDIFRGDVMC had an amyloid nucleation score of -0.991 ± 0.71. Turning to KSQVVMRDVEPATNIV, the amyloid nucleation score is -0.153 ± 0.69. The result for KSSYLFMTSWPYWVRGMSYA reads 0.01 ± 0.46; that for KSVAIAPYDGCVMFSKQTWG, -0.025 ± 0.63; that for KSYLLGDGTFNSCTW, 0.107 ± 0.69. As for KTAPGLKCIQIEVWQY, the figure is 0.035 ± 0.35.

For the substance KTFLHSTSYNNKKRWMSLRQ, the amyloid nucleation score amounted to 0.485 ± 0.66. With KTLDLHISFPQDKLFR, the amyloid nucleation score was -0.382 ± 0.45. The result for KTRHMREDGQCVYKHEMERM reads 0.577 ± 0.19.
